The source of these data is paper PMC7758071.

The experiment has as its target Chinese hamster BiP, wild type, with an N-terminal His6-tag (UK173) (Chinese hamster) (UniProt G3I8R9). Nature of the experiment: SEC; 40 µM BiP with 1 mM ADP, 20 min at 24°C; SEC-3 HPLC column, 50 mM HEPES-KOH pH 7.4, 150 mM KCl, 10 mM MgCl2, 26°C; A230.

Several values for one entry are separate records, joined by “and”; a condition that tells them apart may be missing. Equal values may be shown once.

For the substance “Chinese hamster BiP, wild type, with an N-terminal His6-tag (UK173) (from UniProt G3I8R9 19-654) (natural protein)”, the stoichiometry N was 2 and 3.
